Test results reported in the supplement of paper PMC9112550, “Optimization of the antimicrobial peptide Bac7 by deep mutational scanning” (BMC Biology, 2022).

system: Escherichia coli TOP10; assay: shrunken log2 fold change of peptide-encoding DNA abundance (4.5 h post-induction vs induction); higher = less antimicrobial activity (less host growth inhibition); conditions: time post-induction: 4.5 h; library: site-saturation at positions 5, 18, 19, 20
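Also: peptides expressed intracellularly from a pBAD plasmid library in pooled LB shake-flask culture, induced with 0.3% L-arabinose, DNA abundance read by NGS, three biological replicates, DESeq2 with apeglm shrinkage.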

| Sequence | shrunken log2 fold change |
| --- | --- |
| RRIRHRPPRLPRPRPRPDQFPRP | -0.441 |
| RRIRCRPPRLPRPRPRPLFVPRP | -0.482 |
| RRIRTRPPRLPRPRPRPKFFPRP | -0.00469 |
| RRIRSRPPRLPRPRPRPIWNPRP | -0.316 |
| RRIRGRPPRLPRPRPRPQQLPRP | 0.487 |
| RRIRWRPPRLPRPRPRPSDPPRP | 0.00652 |
| RRIRRRPPRLPRPRPRPFTCPRP | -0.0792 |
| RRIRWRPPRLPRPRPRPGSEPRP | 0.385 |
| RRIRTRPPRLPRPRPRPCKWPRP | -0.000493 |
| RRIRRRPPRLPRPRPRPTFRPRP | 0.0132 |
| RRIRIRPPRLPRPRPRPYMDPRP | -0.315 |
| RRIRDRPPRLPRPRPRPQGWPRP | 0.693 |
| RRIRPRPPRLPRPRPRPMTEPRP | -0.0153 |
| RRIRSRPPRLPRPRPRPAFWPRP | 0.651 |
| RRIRIRPPRLPRPRPRPDQDPRP | -0.162 |
| RRIRTRPPRLPRPRPRPQGCPRP | 0.0515 |
| RRIRIRPPRLPRPRPRPSKQPRP | -0.18 |
| RRIRQRPPRLPRPRPRPLFIPRP | -0.673 |
| RRIRFRPPRLPRPRPRPRDQPRP | 0.0987 |
| RRIRCRPPRLPRPRPRPWDGPRP | 0.0877 |
| RRIRPRPPRLPRPRPRPYTDPRP | -0.562 |
| RRIRPRPPRLPRPRPRPRLPPRP | 0.383 |
| RRIRVRPPRLPRPRPRPCENPRP | -0.0135 |
| RRIRIRPPRLPRPRPRPEGSPRP | 0.0664 |
| RRIRIRPPRLPRPRPRPQATPRP | -0.24 |

| Sequence | shrunken log2 fold change |
| --- | --- |
| RRIRMRPPRLPRPRPRPPYAPRP | 0.291 |
| RRIRHRPPRLPRPRPRPESDPRP | -0.227 |
| RRIRLRPPRLPRPRPRPNPMPRP | 0.0102 |
| RRIRCRPPRLPRPRPRPSHMPRP | -0.838 |
| RRIRGRPPRLPRPRPRPKIPPRP | 0.0163 |
| RRIRVRPPRLPRPRPRPRYAPRP | -0.000525 |
| RRIRSRPPRLPRPRPRPSGFPRP | 0.0519 |
| RRIRYRPPRLPRPRPRPFVGPRP | -0.193 |
| RRIRTRPPRLPRPRPRPFTYPRP | -0.00136 |
| RRIRNRPPRLPRPRPRPCDKPRP | 0.14 |
| RRIRERPPRLPRPRPRPADGPRP | -0.0752 |
| RRIRKRPPRLPRPRPRPVVSPRP | -0.292 |
| RRIRCRPPRLPRPRPRPCLWPRP | 0.238 |
| RRIRCRPPRLPRPRPRPTTPPRP | 0.227 |
| RRIRDRPPRLPRPRPRPENCPRP | -0.0102 |
| RRIRPRPPRLPRPRPRPLQMPRP | 0.205 |
| RRIRPRPPRLPRPRPRPWPRPRP | 0.766 |
| RRIRVRPPRLPRPRPRPTMTPRP | 0.11 |
| RRIRRRPPRLPRPRPRPMCRPRP | 0.37 |
| RRIRDRPPRLPRPRPRPHSRPRP | -0.328 |
| RRIRLRPPRLPRPRPRPSMEPRP | -0.371 |
| RRIRNRPPRLPRPRPRPETTPRP | 0.0795 |
| RRIRSRPPRLPRPRPRPNVEPRP | 0.814 |
| RRIRWRPPRLPRPRPRPEWEPRP | 0.00016 |
| RRIRIRPPRLPRPRPRPFSPPRP | -0.267 |

| Sequence | shrunken log2 fold change |
| --- | --- |
| RRIRSRPPRLPRPRPRPCEMPRP | 0.0253 |
| RRIRPRPPRLPRPRPRPQWRPRP | 0.308 |
| RRIRQRPPRLPRPRPRPTVNPRP | -0.0853 |
| RRIRWRPPRLPRPRPRPHPCPRP | 0.12 |
| RRIRPRPPRLPRPRPRPIHQPRP | -0.115 |
| RRIRVRPPRLPRPRPRPGCMPRP | -0.076 |
| RRIRFRPPRLPRPRPRPRKAPRP | 0.182 |
| RRIRFRPPRLPRPRPRPVEHPRP | -0.0778 |
| RRIRDRPPRLPRPRPRPYYRPRP | -0.163 |
| RRIRQRPPRLPRPRPRPSYRPRP | -0.0524 |
| RRIRKRPPRLPRPRPRPDTDPRP | 0.198 |
| RRIRARPPRLPRPRPRPLSIPRP | -0.308 |
| RRIRHRPPRLPRPRPRPAQIPRP | 0.276 |
| RRIRLRPPRLPRPRPRPSTMPRP | -0.407 |
| RRIRCRPPRLPRPRPRPPRYPRP | 0.753 |
| RRIRERPPRLPRPRPRPATAPRP | 0.147 |
| RRIRARPPRLPRPRPRPVTTPRP | 0.342 |
| RRIRFRPPRLPRPRPRPRPMPRP | 0.856 |
| RRIRSRPPRLPRPRPRPTGGPRP | 0.259 |
| RRIRARPPRLPRPRPRPQVWPRP | 0.275 |
| RRIRPRPPRLPRPRPRPMLIPRP | -0.553 |
| RRIRQRPPRLPRPRPRPGACPRP | 0.206 |
| RRIRYRPPRLPRPRPRPGENPRP | 0.00408 |
| RRIRKRPPRLPRPRPRPCGTPRP | -0.0177 |
| RRIRCRPPRLPRPRPRPWQMPRP | -0.0748 |

| Sequence | shrunken log2 fold change |
| --- | --- |
| RRIRPRPPRLPRPRPRPCPCPRP | -0.481 |
| RRIRQRPPRLPRPRPRPVRPPRP | 0.162 |
| RRIRKRPPRLPRPRPRPKCHPRP | 0.182 |
| RRIRPRPPRLPRPRPRPQNVPRP | -0.212 |
| RRIRPRPPRLPRPRPRPMWVPRP | -0.138 |
| RRIRYRPPRLPRPRPRPMLPPRP | -0.0473 |
| RRIRNRPPRLPRPRPRPFSYPRP | -0.171 |
| RRIRIRPPRLPRPRPRPARVPRP | -0.0658 |
| RRIRPRPPRLPRPRPRPMDIPRP | -0.158 |
| RRIRLRPPRLPRPRPRPEDSPRP | -0.0351 |
| RRIRSRPPRLPRPRPRPNPAPRP | -0.0743 |
| RRIRIRPPRLPRPRPRPAPYPRP | -0.406 |
| RRIRFRPPRLPRPRPRPHPRPRP | 0.5 |
| RRIRARPPRLPRPRPRPFWYPRP | -0.181 |
| RRIRARPPRLPRPRPRPWTCPRP | 0.0519 |
| RRIRWRPPRLPRPRPRPCHKPRP | -0.0267 |
| RRIRARPPRLPRPRPRPNDFPRP | -0.214 |
| RRIRYRPPRLPRPRPRPFGQPRP | -0.219 |
| RRIRGRPPRLPRPRPRPQQWPRP | 0.067 |
| RRIRARPPRLPRPRPRPIKQPRP | -0.0628 |
| RRIRRRPPRLPRPRPRPNVPPRP | 0.032 |
| RRIRNRPPRLPRPRPRPLSMPRP | -0.012 |
| RRIRFRPPRLPRPRPRPGKYPRP | -0.586 |
| RRIRPRPPRLPRPRPRPKLTPRP | 0.421 |
| RRIRHRPPRLPRPRPRPHMQPRP | -0.616 |

| Sequence | shrunken log2 fold change |
| --- | --- |
| RRIRPRPPRLPRPRPRPQIVPRP | -0.594 |
| RRIRFRPPRLPRPRPRPIEYPRP | -0.00801 |
| RRIRMRPPRLPRPRPRPYKRPRP | -0.0368 |
| RRIRMRPPRLPRPRPRPEHFPRP | 0.0315 |
| RRIRARPPRLPRPRPRPRIAPRP | 0.631 |
| RRIRFRPPRLPRPRPRPYLSPRP | -1.86 |
| RRIRMRPPRLPRPRPRPIFLPRP | -0.227 |
| RRIRGRPPRLPRPRPRPLEDPRP | 0.205 |
| RRIRDRPPRLPRPRPRPETTPRP | 0.0986 |
| RRIRTRPPRLPRPRPRPTSLPRP | -0.123 |
| RRIRYRPPRLPRPRPRPNHAPRP | -0.142 |
| RRIRTRPPRLPRPRPRPFTCPRP | 0.0121 |
| RRIRQRPPRLPRPRPRPITKPRP | -0.0284 |
| RRIRPRPPRLPRPRPRPVILPRP | -0.26 |
| RRIRYRPPRLPRPRPRPEHIPRP | -0.0114 |
| RRIRSRPPRLPRPRPRPKRAPRP | 0.326 |
| RRIRARPPRLPRPRPRPLIQPRP | 0.0545 |
| RRIRDRPPRLPRPRPRPVSTPRP | 0.0725 |
| RRIRHRPPRLPRPRPRPSHCPRP | -0.0642 |
| RRIRARPPRLPRPRPRPSLTPRP | 0.172 |
| RRIRMRPPRLPRPRPRPSFAPRP | 0.301 |
| RRIRGRPPRLPRPRPRPLIRPRP | 0.0808 |
| RRIRTRPPRLPRPRPRPLVSPRP | -0.0657 |
| RRIRARPPRLPRPRPRPGDDPRP | 0.846 |
| RRIRCRPPRLPRPRPRPRWKPRP | 0.847 |

| Sequence | shrunken log2 fold change |
| --- | --- |
| RRIRWRPPRLPRPRPRPHINPRP | -0.491 |
| RRIRERPPRLPRPRPRPARTPRP | 0.0417 |
| RRIRCRPPRLPRPRPRPQCWPRP | 0.0604 |
| RRIRCRPPRLPRPRPRPGEWPRP | 0.393 |
| RRIRARPPRLPRPRPRPSCQPRP | 0.133 |
| RRIRRRPPRLPRPRPRPNGDPRP | 0.241 |
| RRIRERPPRLPRPRPRPNYGPRP | -0.0315 |
| RRIRGRPPRLPRPRPRPIKLPRP | 0.125 |
| RRIRERPPRLPRPRPRPVLRPRP | -0.156 |
| RRIRSRPPRLPRPRPRPKDAPRP | 0.22 |
| RRIRARPPRLPRPRPRPGTRPRP | 0.532 |
| RRIRSRPPRLPRPRPRPQLEPRP | 0.455 |
| RRIRGRPPRLPRPRPRPCQVPRP | 0.224 |
| RRIRIRPPRLPRPRPRPVHKPRP | -0.442 |
| RRIRTRPPRLPRPRPRPWLCPRP | 0.0607 |
| RRIRQRPPRLPRPRPRPQWIPRP | -0.0848 |
| RRIRWRPPRLPRPRPRPSTIPRP | -0.374 |
| RRIRIRPPRLPRPRPRPYAQPRP | -0.121 |
| RRIRDRPPRLPRPRPRPMLFPRP | -0.0792 |
| RRIRQRPPRLPRPRPRPMNMPRP | 0.0227 |
| RRIRDRPPRLPRPRPRPRKLPRP | 0.0892 |
| RRIRIRPPRLPRPRPRPVNHPRP | -0.288 |
| RRIRLRPPRLPRPRPRPQFMPRP | -0.462 |
| RRIRVRPPRLPRPRPRPDNYPRP | -0.222 |
| RRIRDRPPRLPRPRPRPICIPRP | 0.0464 |
